Each block holds one molecule with its values, some of them ahead of it.
Tests used:
[1] = system: IL-1α, IL-1β, or both IL-1α and IL-1β; test: Functional homogeneity: antigen binding in solution by SEC; details: 120-minute incubation at 37° C. with antigen in equal molar ratio
Procedure: Because DVD2-Ig binding protein was purified by Protein A chromatography instead of target-specific affinity chromatography, any potential misfolded and/or mismatched VL/VH domains, if present, can be assessed by binding studies against the two different antigens. Such binding analysis was conduced by size exclusion liquid chromatography (SEC). DVD2-Ig binding protein, alone or after a 120-minute incubation period at 37° C. with IL-1α, IL-1β, or both IL-1α and IL-1β, in equal molar ratio, were applied to the column. Each of the antigens was also run alone as controls. […] In the presence of both IL-1α and IL-1β, there was a further and complete shift of the DVD2-Ig binding protein signal, indicating all DVD2-Ig molecules were able to bind both antigens in a uniform fashion.

Male SV129 mice = test: Destabilization of medial meniscus (DMM) model of osteoarthritis, cartilage degeneration (Chambers scores); format: in vivo, mouse; details: Example 3.3.6 (FIG. 7); 8 weeks; mAbs 6 mg/kg alone or in combination
Description: (§1) Male SV129 mice weighing approximately 30 grams, housed 5/cage, were anesthetized on Day 0 with ketamine/xylazine cocktail, administered intraperitoneally (ip), and then the medial collateral ligament was exposed by blunt dissection, and transected to reflect the meniscus toward the femur. The joint space was closed with 8-0 vicryl suture. The skin was closed with wound glue. For sham surgeries, a vertical skin incision was made over the medial aspect of the knee and the joint capsule was opened. The capsule was closed with 8-0 vicryl suture and the skin was closed with wound glue. Groups of animals were then treated with intraperitoneal (ip) injections of antibody or vehicle according to the study design table below. Two sex-matched, age-matched, and strain-matched naïve mice were also included in the study. Animals were euthanized after 8 weeks of treatment, and knee joints were harvested in 10% neutral buffered formalin.
Formalin-fixed samples were decalcified, and specimens were sectioned in the frontal plane into 15 step sections each. Each section was approximately 6 μm thick, and step sections were separated by 70 μm. All slides were stained with toluidine blue (T. Blue). Slides were assessed according to the Chambers method (Chambers et al. (2001) Arthritis Rheum 44:1455-65) for cartilage degeneration (see below) by a board-certified veterinary pathologist. Each of the four cartilage surfaces, the medial femoral condyle (MFC), the medial tibial plateau (MTP), the lateral femoral condyle (LFC), and the lateral tibial plateau (LTP), was scored from 0-6 according to the scale in the table below.
as §1, with “8-0 vicryl suture, and the” for “8-0 vicryl suture and the”, “injections of anti-mIL-1α monoclonal antibody, anti-mIL-1β (alone or in combination), mIL-1α/βDVD-Ig binding protein, or vehicle” for “injections of antibody or vehicle”, “design table below (Table 24). Animals were” for “design table below. Two sex-matched, age-matched, and strain-matched naïve mice were also included in the study. Animals were”, “weeks of treatment and knee” for “weeks of treatment, and knee”
Male SV129 mice weighing approximately 30 grams had the medial collateral ligament exposed by blunt dissection, and transected to reflect the meniscus toward the femur. The joint space was closed with 8-0 vicryl suture. The skin was closed with wound glue. For sham surgeries, a vertical skin incision was made over the medial aspect of the knee and the joint capsule was opened. The capsule was closed with 8-0 vicryl suture, and the skin was closed with wound glue. Groups of animals were then treated per os (po) or via intraperitoneal (ip) injections of vehicle or treatments according to the study design table below. Three sex-matched, age-matched, and strain-matched naïve mice were also included in the study. Animals were euthanized after 4 weeks of treatment, and knee joints were harvested in 10% neutral buffered formalin.

male Swiss Webster mice = test: Joint instability model (JIM) of osteoarthritis, cartilage degeneration histology; format: in vivo, mouse; details: Example 3.3.3 (FIG. 4); 21 day study; anti-IL-1β mAb 3, 6, 12 mg/kg; combination 6 mg/kg each
Procedure: The design of study of the in vivo activity of a mIL-1α/β DVD-Ig molecule in the joint instability model (JIM) of osteoarthritis in mice is shown in Table 19. All groups contained 25 mice (n=25), weighing approximately 30 grams (BW=30 g). The study was terminated after 21 days. Two and a half month old, male Swiss Webster mice (25/group/time point), housed 5/cage, were anesthetized with isoflurane anesthesia. Anterior cruciate ligament (ACL) trauma was administered on the right and left knees on day 0 in an attempt to induce OA lesions. Intraperitoneal (ip) treatments with IL-1 inhibitory antibodies IL-1α (9H10) and IL-1β (10G11), alone and in combination, were initiated the day of ACL trauma and continued every 4th day (q4d) for 20 days. The vehicle for the non-treatment control was PBS. Right and left knees were harvested on day 21, and histopathologic alterations were scored and characterized. Data were analyzed using only joints that had proliferative responses indicative of successful instability induction. The proliferative response/instability was scored 0-3, and only unstable joints (scores of 1, 2, or 3) were used in the final analysis. Medial and lateral femoral and tibial cartilage degeneration was scored for severity of cartilage degeneration on a scale 0-5. Four days after the last antibody dose, blood was drawn from all animals from each group for serum harvest. Body weights were recorded weekly. […]
Following 2-3 days in a decalcifying fixative (Surgipath Decalifier, Surgipath Medical Ind., Inc., Richmond Va.), both knee joints were trimmed of extraneous tissue, embedded in the frontal plane and sectioned. […] Slides were examined by a board-certified veterinary pathologist blinded to study group designation, and were scored according to the method below. […]
Medial and lateral femoral and tibial cartilage degeneration were scored for severity of cartilage degeneration using the following system: Depth/extent of chondrocyte and proteoglycan loss with fibrillation: […]
The design of this study was similar to that described above in Example 3.3.1. […] Body weights were recorded weekly. […]

shift of the DVD2-Ig binding protein SEC signal in complex with antigen [1]: 100%
B1: DVD2-Ig: DVD-Ig as DVD1-Ig but with linkers ADAAP (light chain) and AKTTPP (heavy chain) (antibody)
VH: MQLSGLTSEDSAMYFCVRFPTGNDYYAMDYWGQGTSVTVSSAKTTPPQIQLVQSGPELKKPGETVKISCKASGYTFRNYGMNWVKQAPGKDLKRMAWINTYTGESTYADDFKGRFAFSLETSASTAYLQINNLKNEDTATYFCARGIYYYGSSYAMDYWGQGTSVTVSS
VL: PVEADDAATYYCQQNNEDPFTFGSGTKLEIKRADAAPNIQMTQTTSSLSASLGDRVTISCRASQDISNCLNWYQQKPDGTVKLLIYYTSRLHSGVPSRFSGSGSGTDYSLTISNLEQEDIATYFCQQGKTLPYAFGGGTKLEINR

B2: 10G11: mouse anti-mouse IL-1β monoclonal antibody (clone 10G11) from IL-1α/β double KO mice (antibody, V domains shown)
VH: EVQLQQSGPELVKPGTSVKMSCKTSGYTFTSYVMHWVKQKPGQGLEWIGYIIPYNDNTKYNEKFKGKATLTSDKSSSTAYMELSSLTSEDSAVYYCARRNEYYGSSFFDYWGQGTTLTVSS
VL: DIQMTQSPASLSASVGETVTITCRGSGILHNYLVWYQQKQGKSPQLLVYSAKILADGVPSRFSGSGSGTQYSLKINSLQPEDFGSYYCQHFWSTPFTFGSGTKLEIKR
modifications: heavy chain variable domain of 10G11; light chain variable domain of 10G11
notes: mouse anti-mouse IL-1β monoclonal antibody (clone 10G11) from IL-1α/β double KO mice
mean sum Chambers scores and mean maximum Chambers scores (cartilage degeneration) (Male SV129 mice): not statistically significant
preventing cartilage degradation (medial tibial cartilage degeneration scores) (male Swiss Webster mice): not effective in preventing cartilage degradation at any dose tested

Source: patent US8889130B2, “Treatment of osteoarthritis and pain” (Abbvie Inc., priority 2011, dated 2014)
